Reference: patent publication EP2032607B1

Tests used:
[1] = biological target: activated FIX-albumin fusion protein with cleavable linker 1088/797 (human) (UniProt P00740); test: cell-based or functional assay
[2] = biological target: activated FIX-albumin fusion protein with non-cleavable linker 980/797 (human) (UniProt P00740); test: cell-based or functional assay

clotting time (naPTT) after 120 min incubation with AT [1]: 540 s | clotting time (naPTT), control with AT but without incubation [1]: 210 s | factor of increase in clotting time (naPTT) after 120 min incubation with AT [1]: 2.57 x | clotting time (naPTT) after 120 min incubation with AT [2]: 411 s | clotting time (naPTT), control with AT but without incubation [2]: 196 s
Substance: antithrombin III (from UniProt P01008 33-464)
